Among the data in patent publication US20180071413A1 (INSERM INSTITUT NATIONAL DE LA SANTE ET DE LA RECHERCHE …, published 2018) are Kd and IC50 values, retold here.

The term Kd denotes a measure of binding affinity in units of concentration. Broadly, the IC50 is the concentration that gives 50% inhibition.

In assay [1] the target is T1, human PD-L1 (human, UniProt Q9NZQ7 19-290).
T1 construct: whole, on cells; Target presented on human breast cancer cell lines; The quantitative assays (IRF, IC50, Kd) used MDA-MB-231 cells; also called CD274; Programmed Cell Death 1 Ligand 1
In words: Scatchard analysis on cells, 4 h on ice, 3-3000 pM ^111In-PD-L1.3.1, non-specific binding determined with 100 nM unlabeled antibody; 111In-labeled antibody, Scatchard analysis; MDA-MB-231 cells by paragraph 130. How it is done:
(§1) Cells were cultured to confluency in six-well plates and were incubated for 4 h on ice with increasing concentrations ¹¹¹In-PD-L1.3.1 (3-3000 pM) in 1 ml RPMI1640 containing 0.5% BSA. Non-specific binding was determined by co-incubation with 100 nM PD-L1.3.1. After incubation, cells were washed with PBS and the cell-associated activity was measured in a shielded well-type gamma counter. The specific binding (total binding—nonspecific binding) was plotted against the bound/free ratio. Data were analyzed by linear regression to determine PD-L1 receptor density per cell and to determine the Kd of ¹¹¹In-PD-L1.3.1.

For assay [2], the target named is T1, human PD-L1. Nature of the assay: saturation binding of ^111In-PD-L1.3.1 on cells, 4 h on ice, called Scatchard analysis in the filing; the cell line is not printed on the sheet (MDA-MB-231 used in the subsequent binding assays). The procedure:
as §1

The target of assay [3] is T1, human PD-L1. In words: competition on MDA-MB-231 cells, 4 h on ice: unlabeled PD-L1.3.1 (1-1000 pM) against 20 pM ^111In-PD-L1.3.1, gamma counter; unlabeled antibody, competition on MDA-MB-231 cells. The procedure:
MDA-MB-231 cells were cultured to confluency in six-well plates. The 50% inhibitory concentration (IC₅ₒ) of PD-L1.3.1 blocking of ¹¹¹In-PD-L1.3.1 binding was determined by incubating the cells for 4 h on ice in 1 ml RPMI1640 0.5% BSA, containing 20 pM ¹¹¹In-PD-L1.3.1 (1 kBq) and increasing concentrations of unlabeled PD-L1.3.1 (1-1000 pM). After incubation, cells were washed with PBS and the cell-associated activity was measured in a gamma counter. The IC₅₀ was defined as the antibody concentration that was required to inhibit binding of the radio labeled antibody by 50%. IC₅₀ values were calculated using GraphPad Prism.

T1 sequence (Q9NZQ7 19-290): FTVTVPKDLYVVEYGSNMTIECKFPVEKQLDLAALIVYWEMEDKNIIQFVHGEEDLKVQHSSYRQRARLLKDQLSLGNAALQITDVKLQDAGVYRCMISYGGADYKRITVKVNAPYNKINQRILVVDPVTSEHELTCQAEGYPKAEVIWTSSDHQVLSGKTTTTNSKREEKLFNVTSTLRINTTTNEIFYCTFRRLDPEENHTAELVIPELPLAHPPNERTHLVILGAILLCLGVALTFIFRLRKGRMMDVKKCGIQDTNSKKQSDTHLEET

B1: ^111In-DTPA-PD-L1.3.1 (antibody, V domains shown)
VH: EVQLQQSGTELVKPGASVKLSCTTSGFNIQDTYMHWVKQRPEQGLEWIGWIDPANGNTKYDPKFQGKATIIADTSSNTAYLQLRGLTSEDTAVYYCARSGVSTAHFDYWGQGTTLTVSS
VL: QIVLSQSPAILSASPGEKVTMTCRASSSVSFMHWYQQKPGSSPKPWIYATSNLASGVPTRFSGSGSGTSYSLTLSRVEAEDAATYYCQQWSSYPRTFGGGTKLEIK
modifications: ITC-DTPA conjugate chelating ^111In; conjugated residues and chain not stated
Take B1: the Kd came to 0.97 nM in assay [1] and 1 nM in assay [2].

B2: PD-L1.3.1 antibody (unlabeled) (antibody, V domains shown)
VH: EVQLQQSGTELVKPGASVKLSCTTSGFNIQDTYMHWVKQRPEQGLEWIGWIDPANGNTKYDPKFQGKATIIADTSSNTAYLQLRGLTSEDTAVYYCARSGVSTAHFDYWGQGTTLTVSS
VL: QIVLSQSPAILSASPGEKVTMTCRASSSVSFMHWYQQKPGSSPKPWIYATSNLASGVPTRFSGSGSGTSYSLTLSRVEAEDAATYYCQQWSSYPRTFGGGTKLEIK
notes: also called unlabeled PD-L1.3.1
For B2, the concentration for half-maximal inhibition (IC50) in assay [3] was determined as 0.15 nM.
